From US20240010720A1 (IOMX THERAPEUTICS, published 2024)
Substitutions are numbered along the chain they refer to. Read-outs that look alike come from different tables or passages of the source. Blank lines part the entries; values can stand above or below the binder they belong to.

Assays:
[1] = molecular target: T1, human IGSF11 (VSIG3) on cells (human, UniProt Q5DX21 23-431); experiment: FACS, IgG1-format antibodies; CL-11 cells (C), a line that does not express IGSF11 (specificity control), IGSF11 siRNA (KD)
T1 sequence: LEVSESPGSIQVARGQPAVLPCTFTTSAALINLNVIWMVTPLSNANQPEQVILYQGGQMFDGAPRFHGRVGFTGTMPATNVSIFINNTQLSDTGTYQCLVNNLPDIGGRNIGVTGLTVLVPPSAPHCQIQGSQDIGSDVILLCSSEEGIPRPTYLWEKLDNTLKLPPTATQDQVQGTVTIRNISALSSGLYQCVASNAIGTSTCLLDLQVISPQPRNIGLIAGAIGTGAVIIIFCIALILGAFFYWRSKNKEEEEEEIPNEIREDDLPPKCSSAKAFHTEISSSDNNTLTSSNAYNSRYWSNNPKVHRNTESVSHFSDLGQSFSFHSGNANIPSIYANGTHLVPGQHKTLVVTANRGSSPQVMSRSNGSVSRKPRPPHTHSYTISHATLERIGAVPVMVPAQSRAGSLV

[2] = molecular target: T1, human IGSF11 (VSIG3) on cells; experiment: FACS, IgG1-format antibodies; DMS 273 cells (D) treated with scrambled control siRNA (SC)
[3] = molecular target: T1, human IGSF11 (VSIG3) on cells; experiment: FACS, DMS 273 cells
[4] = molecular target: T2, His-tagged extracellular domain (ECD) of human IGSF11 (VSIG3) (human, UniProt Q5DX21 23-241); experiment: ELISA EC50 grade, IgG1
T2 construct: partly bought (SinoBiological 13094-H08H); also called IGSF11-HIS; HIS-IGSF11; not shown: HIS6 tag
T2 sequence: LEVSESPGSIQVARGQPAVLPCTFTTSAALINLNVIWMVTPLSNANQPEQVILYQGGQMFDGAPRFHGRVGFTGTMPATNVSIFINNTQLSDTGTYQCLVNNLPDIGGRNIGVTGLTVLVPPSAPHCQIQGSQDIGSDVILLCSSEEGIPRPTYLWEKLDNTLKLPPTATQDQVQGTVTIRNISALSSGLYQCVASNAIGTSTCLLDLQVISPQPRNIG

[5] = molecular target: T2, His-tagged extracellular domain (ECD) …; experiment: ELISA: IgG1-format antibody titrated on coated His-tagged IGSF11; x axis nM IgG, y axis absorbance per legend
[6] = molecular target: T3, recombinant human IGSF11 (VSIG3) extracellular domain (ECD) (human, UniProt Q5DX21 23-241, biotinylated where captured on streptavidin); experiment: SPR, IgG1
T3 construct: also called biotinylated recombinant ECD-IGSF11; IGSF11 (ECD domain)
T3 sequence: T2 sequence

[7] = molecular target: T1, human IGSF11 (VSIG3) on cells; experiment: FACS, IgG1-format antibodies; M579-A2-luc cells (M) treated with IGSF11 siRNA (KD)
[8] = molecular target: T2, His-tagged extracellular domain (ECD) …; experiment: blocking ELISA: antibody pre-incubated with His-tagged IGSF11 ECD, complexes added to immobilised VSIR-Fc; y axis % remaining IGSF11 binding to VSIR, x axis nM IgG per legend
[9] = molecular target: T1, human IGSF11 (VSIG3) on cells; experiment: FACS, HEK cells expressing IGSF11
[10] = molecular target: T1, human IGSF11 (VSIG3) on cells; experiment: FACS, IgG1-format antibodies; CL-11 cells (C), a line that does not express IGSF11 (specificity control), scrambled control siRNA (SC)
[11] = molecular target: T3, recombinant human IGSF11 (VSIG3) …; experiment: BLI, IgG1
[12] = molecular target: T1, human IGSF11 (VSIG3) on cells; experiment: FACS, IgG1-format antibodies; DMS 273 cells (D) treated with IGSF11 siRNA (KD)
[13] = molecular target: T1, human IGSF11 (VSIG3) on cells; experiment: FACS, IgG1-format antibodies; M579-A2-luc cells (M) treated with scrambled control siRNA (SC)
[14] = molecular target: T2, His-tagged extracellular domain (ECD) …; experiment: ELISA: IgG1-format antibody titrated on coated His-tagged IGSF11; x axis nM IgG, y axis absorbance per legend; remark: listed apart in the source
[15] = molecular target: T2, His-tagged extracellular domain (ECD) …; experiment: blocking ELISA: antibody pre-incubated with His-tagged IGSF11 ECD, complexes added to immobilised VSIR-Fc; y axis % remaining IGSF11 binding to VSIR, x axis nM IgG per legend; remark: listed apart in the source
murine IGSF11 on cells [16] = molecular target: T4, murine IGSF11 on cells (mouse, UniProt P0C673 23-428); experiment: FACS, CT26-IGSF11 cells, IgG
T4 construct: UniProt P0C673; also called MC38-IGSF11 (murine); CT26-IGSF11 (murine)
T4 sequence: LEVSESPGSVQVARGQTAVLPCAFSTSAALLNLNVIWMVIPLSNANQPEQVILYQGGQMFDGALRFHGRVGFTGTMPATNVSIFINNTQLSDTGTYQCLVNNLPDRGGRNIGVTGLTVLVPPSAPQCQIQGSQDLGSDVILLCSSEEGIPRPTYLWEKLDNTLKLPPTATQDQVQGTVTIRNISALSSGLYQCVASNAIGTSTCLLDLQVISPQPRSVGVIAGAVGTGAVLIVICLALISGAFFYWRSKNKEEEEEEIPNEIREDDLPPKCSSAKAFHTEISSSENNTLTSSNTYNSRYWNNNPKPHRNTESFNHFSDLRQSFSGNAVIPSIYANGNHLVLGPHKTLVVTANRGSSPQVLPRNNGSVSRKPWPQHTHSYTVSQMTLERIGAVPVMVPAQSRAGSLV
Excerpt: (§1) Unbound antibodies were removed by washing the cells three time with FACS buffer. Bound antibodies were detected with a mouse anti-human IgG antibody conjugated with AlexaFluor647.

[17] = molecular target: T3, recombinant human IGSF11 (VSIG3) …; experiment: BLI, apparent affinity, IgG captured, IGSF11 ECD 100 nM
Excerpt: Briefly, various APBs were loaded on an optical biosensor via a commercially available Capture System (AHC sensors, ForteBio).

murine IGSF11 on cells [18] = molecular target: T4, murine IGSF11 on cells; experiment: FACS, MC38-IGSF11 cells, IgG
Excerpt: as §1

[19] = molecular target: T1, human IGSF11 (VSIG3) on cells; experiment: FACS, MDA-MB-231-IGSF11 cells, IgG
Excerpt: as §1

[20] = molecular target: T5, IGSF11 ECD fused to murine-Fc (human; mouse, UniProt Q5DX21 23-241); experiment: ELISA, IgG
T5 construct: also called Fc-fusion IGSF11 ECD; full-length ECD of IGSF11; not shown: murine Fc
T5 sequence: T2 sequence

[21] = molecular target: T6, IgC2 domain of human IGSF11 fused to murine IgG2a Fc-region (human; mouse, UniProt Q5DX21 137-241); experiment: ELISA, IgG
T6 construct: also called IgC2-like domain mFc fusion; not shown: murine IgG2a Fc-region
T6 sequence: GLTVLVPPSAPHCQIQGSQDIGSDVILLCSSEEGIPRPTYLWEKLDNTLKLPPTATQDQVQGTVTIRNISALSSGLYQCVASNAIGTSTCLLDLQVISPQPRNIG

[22] = molecular target: T5, IGSF11 ECD fused to murine-Fc; experiment: ELISA, IgG; remark: listed apart in the source
Excerpt: Expi293 cells (ThermoFisher) were transiently transfected with DNA sequences encoding the applicable IGSF11 domain-mFc fusions according to the manufacturer's instructions, and cultured under conditions suitable to the IGSF11 domain fusion. Cell supernatants were harvested 5 days post transfection and the expressed Fc-protein purified via Protein A affinity chromatography (GE Healthcare). IGSF11 domain Fc-fusion proteins were re-buffered into PBS pH7.4. […] The surface was blocked with 2% (w/v) skim milk powder in PBST. After three wash cycles with PBST, a dilution series of IgG-format ABPs was transferred to the immobilized the Fc-fusion IGSF11 ECD or the IGSF11 domains and incubated for 1 h. After removing all unbound antibodies by 3 wash cycles with PBST, bound IgG ABPs were detected with a goat anti-human IgG antibody conjugated with horseradish peroxidase. After three wash cycles with PBST the ELISA was developed with TMB substrate.

B1: A-012 (IgG1 format) (antibody, V domains shown)
VH: EVQLLESGGGLIQPGGSLRLSCAVSGFTVSSNYMSWVRQAPGKGLEWVSVIYSGGSTYYADSVKGRFTISRDNSKNTLYLQMNSLRAEDTAVYYCARGNPYYYGDLQVNFDYWGQGTLVTVSS
VL: QAVVTQEPSLTVSPGGTVTLTCASSTGAVTSGYYPNWFQQKPGQAPRALIYSTSNKHSWTPARFSGSLLGGKAALTLSGVQPEDEAEYYCLLYYGGAWVFGGGTKLTVL
notes: human IgG1 format
percentage binding (FACS heat-map) [1]: 3.93%
percentage binding (FACS heat-map) [2]: 75.8%
EC50 [3]: 10 to 50 nM
EC50 [4]: 0.02 to 0.05 nM
EC50 (read off the curve) [5]: ~0.007 nM
Kd [6]: 250 to 500 nM
percentage binding (FACS heat-map) [7]: 2.35%
IC50 (read off the curve) [8]: ~2 nM
EC50 [9]: 10 to 50 nM
percentage binding (FACS heat-map) [10]: 5.11%
Kd [11]: 1 to 10 nM
percentage binding (FACS heat-map) [12]: 4.77%
percentage binding (FACS heat-map) [13]: 65.4%

B2: B-003 (chain-swapped IgG1) (antibody, V domains shown)
VH: B1 VH
VL: B1 VL with G16E, K41R, H57D
notes: human IgG1 format; also called B3
EC50 (read off the curve) [5]: ~0.008 nM
IC50 (read off the curve) [8]: ~2 nM

B3: B-005 (chain-swapped IgG1) (antibody, V domains shown)
VH: B1 VH
VL: B1 VL with L20P, A23G, Y33N, Y34L, F64I
notes: human IgG1 format; also called B5
EC50 (read off the curve) [5]: ~0.01 nM
IC50 (read off the curve) [8]: ~2 nM

B4: B-006 (chain-swapped IgG1) (antibody, V domains shown)
VH: B1 VH with L5V, V24A
VL: B1 VL with G16E, K41R, H57D
notes: human IgG1 format; also called B6
EC50 (read off the curve) [14]: ~0.02 nM
IC50 (read off the curve) [15]: ~5 nM

B7: A-011 (IgG1 format) (antibody, V domains shown)
VH: QVQLVESGGGVVQPGRSLRLSCAASGFTFSSYAMHWVRQAPGKGLEWVAVISYDGSNKYYADSVKGRFTISRDNSKNTLYLQMNSLRAEDTAVYYCAEGGALNYYGMDVWGQGTTVTVSS
VL: SSELTQDPGVSVALGQTVRITCQGDSLRHFYATWYQQKPGQAPILVIYGKNNRPSGIPDRFSGSSSEDTASLTITGAQAEDEADYYCQSRDPRNNHLIFGGGTKLIVL
notes: human IgG1 format
percentage binding (FACS heat-map) [1]: 4.86%
percentage binding (FACS heat-map) [2]: 6.95%
EC50 [4]: < 0.02 nM
Kd [6]: 250 to 500 nM
percentage binding (FACS heat-map) [7]: 2.41%
EC50 [22]: < 1 nM
EC50 [9]: > 50 nM
percentage binding (FACS heat-map) [10]: 2.87%
Kd [11]: 10 to 20 nM
percentage binding (FACS heat-map) [12]: 3.4%
percentage binding (FACS heat-map) [13]: 2.05%

The remaining lines, values ahead:

EC50 (read off the curve) [14]: ~0.01 nM
IC50 (read off the curve) [15]: ~3 nM
B5: B-007 (chain-swapped IgG1) (antibody, V domains shown)
VH: B1 VH with L5V, V24A
VL: B1 VL with G32A, E87D
notes: human IgG1 format; also called B7

EC50 (murine IGSF11 on cells [16]): < 20 nM
Kd [17]: < 15 nM
EC50 (murine IGSF11 on cells [18]): < 20 nM
EC50 [19]: 10 to 15 nM
EC50 [20]: < 1 nM
EC50 [21]: < 1 nM
B6: C-003 (IgG1 format) (antibody, V domains shown)
VH: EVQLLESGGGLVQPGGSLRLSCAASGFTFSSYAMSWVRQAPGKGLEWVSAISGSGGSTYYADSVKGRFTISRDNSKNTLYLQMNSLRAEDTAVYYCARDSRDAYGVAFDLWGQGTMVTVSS
VL: ASVLTQPPSVSAAPGQKVTISCSGSSSNIGNNYVSWYQQLPGTAPKLLIYDNNKRPSGIPDRFSGSKSGTSATLGITGLQAEDEADYYCLSYTSSQYVFGGGTKLTVL
notes: wildtype human IgG1 and kappa or lambda constant regions

EC50 [20]: < 1 nM
EC50 [21]: < 1 nM
B8: C-011 (IgG1 format) (antibody, V domains shown)
VH: QVQLVQSGAEVKKPGSSVKVSCKASGGTFSSYAISWVRQAPGQGLEWMGGIIPIFGTANYAQKFQGRVTITADESTSTAYMELSSLRSEDTAVYYCARHSTPSFLQYWGQGTLVTVSS
VL: SYELTQPPSVSVSPGQTASITCSGDKLGDKYASWYQQKPGQSPVLVIYQDSKRPSGIPERFSGSNSGNTATLTISGTQAEDEADYYCAVYPAHASARWVFGGGTKLTVL
notes: as for B6

EC50 [20]: 1 to 20 nM
EC50 [21]: < 1 nM
B9: C-014 (IgG1 format) (antibody, V domains shown)
VH: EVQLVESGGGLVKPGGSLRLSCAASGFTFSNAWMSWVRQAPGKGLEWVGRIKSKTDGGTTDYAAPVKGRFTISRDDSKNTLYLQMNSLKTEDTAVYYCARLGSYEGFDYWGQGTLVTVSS
VL: SYELTQPPSVSVSPGQTASITCSGDKLGDKYASWYQQKPGQSPVLVIYQDSKRPSGIPERFSGSNSGNTATLTISGTQAEDEADYYCSTYTVTSSVVVFGGGTKLTVL
notes: as for B6
